The values that follow come from US8357523B2, “Beta-glucosidase variant enzymes and related polynucleotides” (Codexis, Inc., priority 2009, dated 2013).

The chains are these.
B1: 159 (protein)
chain: STAIAQEGAAPAAILHPEKWPRPATQRLIDPAVEKRVDALLKQLSVEEKVGQVIQGDIGTITPEDLRKYPLGSILAGGDSGPNGDDRAPPKEWLDLADAFYRVSLEKRPGHTPIPVLFGIDAVHGHGNIGSATIFPHNIALGATRDPELLRRIGEVTAVEMTATGIDWTFAPALSVVRDDRWGRTYEGFSEDPEIVASYSAAIVEGVQGKFGSKDFMAPGRIVACAKHFLADGGTDQGRDQGDARISEDELIRIHNAGYPPAIDAGVLTVMASFSSWQGIKHHGHKQLLTDVLKGQMGFNGFIVGDWNAHDQVPGCTKFNCPTSLIAGLDMYMAADSWKQLYENTLAQVKDGTIPMARLDDAVRRILRVKVLAGLFEKPAPKDRPGLPGLETLGSPEHRAVGREAVRKSLVLLKNDKGTLPLSPKARVLVAGDGADNIGKQSGGWTISWQGTGNRNDEFPGATSILGGIRDAVADAGGSVEFDVAGQYKTKPDVAIVVFGEEPYAEFQGDVETLEYQPDQKQDLALLKKLKDQGIPVVAVFLSGRPMWVNPELNASDAFVAAWLPGTEGGGVADVLFTDKAGKVQHDFAGKLSYSWPRTAAQTTVNRGDADYNPLFAYGYGLTYKDKSKVGTLPEESGVPAEARQNAGIYFRAGALRLPGRFL
B2: 178 (protein)
chain: B1 chain with D79N, T162A, F211Y, I222A, A373T
B3: 162 (protein)
chain: B1 chain with D79N, T162A, A173C, S198A, A201P, F211Y, P219V, C225S
B4: 167 (protein)
chain: B1 chain with N128K, T162A, S198A, C225S
B5: 168 (protein)
chain: B1 chain with D79N, N128K, V159Q, T162A, S198A, A201P, F211Y, I222S
B6: 79 (protein)
chain: B1 chain with D79N, N128K, T162A, S198A
B7: 78 (protein)
chain: B1 chain with D79N, T162A, S198A
B8: 80 (protein)
chain: B1 chain with D79N, N128K, S198A
B9: 183 (protein)
chain: B1 chain with D146S, F211Y, I222A, D311G, N320K, R358H, F662L
B10: 166 (protein)
chain: B1 chain with G154V, T162A, S198A, F211Y
B11: 175 (protein)
chain: B1 chain with D146S, T162A, F211Y
B12: 180 (protein)
chain: B1 chain with N128K, D146S, T162A, S198A, A655T
B13: 171 (protein)
chain: B1 chain with V159E, T162A, F211Y, P219V, C225S
B14: 165 (protein)
chain: B1 chain with D79N, A143M, T162A, S198A, A201P
B15: 182 (protein)
chain: B1 chain with I114T, N128K, V159Q, T162A, A173C, F211Y, P219V, C225S
B16: 174 (protein)
chain: B1 chain with E34D, N128K, A143M, V159E, T162A, S198A, A201P, F211Y, C225S
B17: 77 (protein)
chain: B1 chain with D79N, T162A, S198A, A201P
B18: 173 (protein)
chain: B1 chain with I14M, N128K, S198A, A201P, F211Y, Q487R
B19: 172 (protein)
chain: B1 chain with D79N, V159Q, T162A, S198A, F211Y, I222S, G534E
B20: 179 (protein)
chain: B1 chain with N128K, T162A, A173C, F211Y, C225S
B21: 81 (protein)
chain: B1 chain with E18R, P23L, E34K, E47K, P70S, D79N, T162A, S198A
B22: 164 (protein)
chain: B1 chain with N128K, D146S, T162A, S198A
B23: 163 (protein)
chain: B1 chain with N128K, D146S, A173C, F211Y, C225S
B24: 160 (protein)
chain: B1 chain with D79N, D146S, V159Q, T162A, S198A, A201P, F211Y, I222A
B25: 181 (protein)
chain: B1 chain with D79N, N128K, A143M, V159E, T162A, S198A, F211Y
B26: 169 (protein)
chain: B1 chain with V159Q, S198A, A201P, F211Y
B27: 170 (protein)
chain: B1 chain with D79N, N128K, D146S, V159E, T162A, S198A, A201P, F211Y, A573V

Numbering of substitutions follows the chain as printed.

The nature of this data set: High throughput cellobiose assay: fold improvement in cellobiase activity of CelA variants over a control enzyme (Tables 2A-2D, 3, 5, 6, 7). The settings on record: 3.3 g/l cellobiose, 55° C. and pH 6.0. In kind it is biochemical.
Turning to B1, the “Fold improvement over Control Variant No. 5 from Table 2A” value is listed as “+++ (+++ = 6 to 13 fold improvement over control Variant No. 2)”.
As to B2, the “Fold improvement over Control Variant No. 5 from Table 2A” value is reported as “+++ (+++ = 6 to 13 fold improvement over control Variant No. 2)”.
In the case of B3, the “Fold improvement over Control Variant No. 5 from Table 2A” value is “+++ (+++ = 6 to 13 fold improvement over control Variant No. 2)”.
As for B4, the “Fold improvement over Control Variant No. 5 from Table 2A” value is reported as “++ (++ = 1.1 to 6 fold improvement over control Variant No. 2)”.
The same measure for B5: “+++ (+++ = 6 to 13 fold improvement over control Variant No. 2)”.
For the molecule B6, the “Fold improvement over Control Variant No. 5 from Table 2A” value is recorded as “++ (++ = 1.1 to 6 fold improvement over control Variant No. 2)”.
To B7 belongs “++ (++ = 1.1 to 6 fold improvement over control Variant No. 2)”; to B8, “+++ (+++ = 6 to 13 fold improvement over control Variant No. 2)”.
As for B9, the “Fold improvement over Control Variant No. 5 from Table 2A” value was “++ (++ = 1.1 to 6 fold improvement over control Variant No. 2)”.
On to B10, for which the “Fold improvement over Control Variant No. 5 from Table 2A” value is “+++ (+++ = 6 to 13 fold improvement over control Variant No. 2)”.
As to B11, the “Fold improvement over Control Variant No. 5 from Table 2A” value is “+++ (+++ = 6 to 13 fold improvement over control Variant No. 2)”.
For the molecule B12, the “Fold improvement over Control Variant No. 5 from Table 2A” value was “+++ (+++ = 6 to 13 fold improvement over control Variant No. 2)”.
To B13 belongs “+++ (+++ = 6 to 13 fold improvement over control Variant No. 2)”; to B14, “+++ (+++ = 6 to 13 fold improvement over control Variant No. 2)”.
On to B15, for which the “Fold improvement over Control Variant No. 5 from Table 2A” value was “++ (++ = 1.1 to 6 fold improvement over control Variant No. 2)”.
B16: the “Fold improvement over Control Variant No. 5 from Table 2A” value is “++ (++ = 1.1 to 6 fold improvement over control Variant No. 2)”.
For B17, the “Fold improvement over Control Variant No. 5 from Table 2A” value is listed as “++ (++ = 1.1 to 6 fold improvement over control Variant No. 2)”.
The same measure for B18: “+++ (+++ = 6 to 13 fold improvement over control Variant No. 2)”.
The same measure for B19: “+++ (+++ = 6 to 13 fold improvement over control Variant No. 2)”; for B20: “+++ (+++ = 6 to 13 fold improvement over control Variant No. 2)”.
The same measure for B21: “++ (++ = 1.1 to 6 fold improvement over control Variant No. 2)”; for B22: “+++ (+++ = 6 to 13 fold improvement over control Variant No. 2)”.
B23: the “Fold improvement over Control Variant No. 5 from Table 2A” value was “+++ (+++ = 6 to 13 fold improvement over control Variant No. 2)”.
Regarding B24, the “Fold improvement over Control Variant No. 5 from Table 2A” value is “+++ (+++ = 6 to 13 fold improvement over control Variant No. 2)”.
For the molecule B25, the “Fold improvement over Control Variant No. 5 from Table 2A” value is given as “+++ (+++ = 6 to 13 fold improvement over control Variant No. 2)”.
To B26 belongs “+++ (+++ = 6 to 13 fold improvement over control Variant No. 2)”; to B27, “++ (++ = 1.1 to 6 fold improvement over control Variant No. 2)”.
